Results: patent US20110076723A1, “ANTIBODY-PEPTIDE FUSED SYNERGIBODY” (SAMSUNG ELECTRONICS CO., LTD., priority 2008, published 2011)

Legend:
[1] = target: T1, recombinant VEGFR-2 protein (water soluble extracellular site of human VEGFR-2 with Fc of human IgG1 … (human, UniProt P35968 20-764)); assay: competitive ELISA; synergibody titrated with 1 nM VEGFR-2 on coated VEGF 165
T1 construct: extracellular domain; Bought; not shown: Fc of human IgG1
Procedure: Competitive ELISA is performed using the peptides synthesized above in Section 6A in order to assess the molecular interaction of the binders. […] Then the plate is washed five times with PBS containing 0.1% Tween-20, and blocked at room temperature for two hours with PBS containing 5% BSA. For VEGF:VEGFR-2 neutralization ELISA, each of the peptides synthesized in Section 6A above are diluted to one-fourth each time from 100 nM with PBS containing 1 nM VEGFR-2 and 1% BSA, and adjusted to 6.1 pM. 100 μl of peptide/VEGFR-2 solution is added to each well and the plate is left to react at room temperature for two hours. Subsequently, it is washed five times with PBS containing 0.1% Tween-20, mouse anti-VEGFR-2 antibodies (R&D Systems) is diluted to about 1:3,000 with PBS containing 1% BSA, and left to react at room temperature for one hour. Then 100 μl of goat anti-mouse-IgG-HRP (Pierce) diluted to about 1:10,000 with PBS containing 1% BSA is added to each well of the plate, left to react at room temperature for one hour, and washed five times with PBS containing 0.1% Tween-20. Lastly, 100 μl of TMB substrate (SIGMA) is added to each well of the plate to induce color reaction. The reaction is stopped by adding 50 μl of 5N H₂SO₄ solution, and the OD₄₅₀ value is read on a plate reader (Molecular Devices). Through the foregoing, the IC₅₀ value for the VEGF:VEGFR-2 binding capacity is obtained.
The method in Example 2, Section 6B above is used, except that, in the present example, each fused protein synergibodies are diluted from 100 nM to one-fourth each time with PBS containing 1% BSA and 1nM VEGFR-2 and adjusted to 6.1 pM for VEGF:VEGF-2 neutralization ELISA.

[2] = target: T2, recombinant hAng-2 (recombinant protein with His tag attached to human Ang-2; R&D Systems) (human, UniProt O15123 19-496); assay: competitive ELISA; synergibody titrated with 1 nM hAng-2 (His) on coated hTie2-Fc
T2 construct: also called angiopoietin-2; ANGPT2
T2 sequence (looked up): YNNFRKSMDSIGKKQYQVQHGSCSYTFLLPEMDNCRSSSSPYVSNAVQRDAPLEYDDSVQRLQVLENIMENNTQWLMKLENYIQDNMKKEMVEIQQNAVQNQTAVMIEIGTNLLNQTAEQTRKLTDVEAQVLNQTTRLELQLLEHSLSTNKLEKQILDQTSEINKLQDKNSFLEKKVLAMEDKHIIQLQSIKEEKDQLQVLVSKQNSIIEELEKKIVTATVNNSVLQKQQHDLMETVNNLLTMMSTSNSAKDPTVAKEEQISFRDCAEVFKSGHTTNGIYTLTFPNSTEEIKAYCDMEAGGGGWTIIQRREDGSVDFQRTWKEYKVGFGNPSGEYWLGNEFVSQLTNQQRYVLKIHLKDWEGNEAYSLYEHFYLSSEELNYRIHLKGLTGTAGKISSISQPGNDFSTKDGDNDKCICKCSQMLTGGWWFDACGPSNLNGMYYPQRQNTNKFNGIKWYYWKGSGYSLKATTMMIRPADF
Procedure: A competitive ELISA is performed to assess the molecular interaction of the binders. A 96-well MaxiSorp™ flat-bottom plate (Nunc) is coated with hTie2-Fc (R&D Systems), which is a fused protein including the water-soluble extracellular portion of human Tie-2 and Fc of human IgG₁ dissolved in DMEM culture solution containing 50 μg/ml bovine serum albumin (BSA). The concentration of hTie2-Fc used as a coating material is equivalent to 75% of its maximum binding concentration with 1 nM of recombinant hAng-2 (recombinant protein with His tag attached to human Ang-2; R&D Systems). Then the plate is washed five times with Phosphate Buffer Saline (PBS) containing 0.1% Tween-20 and blocked at room temperature for two hours with PBS containing 5% BSA. Each anti-Ang-2 antibodies are diluted from 100 nM by one-fourth each time with PBS containing 1% BSA and 1 nM hAng-2 and adjusted to 6.1 pM for Ang-2:Tie-2 neutralization ELISA. 100 μl of antibody/hAng-2 solutions are placed in each corresponding well and left to react at room temperature for two hours. Then the wells are washed five times with PBS containing 0.1% Tween-20, and the anti-His antibodies (GE Healthcare) are diluted to about 1:3,000 with PBS containing 1% BSA and left to react at room temperature for one hour. Afterwards, 100 μl of goat anti-mouse-IgG-HRP (Pierce) diluted with PBS containing 1% BSA to about 1:10,000 is added to each well of the plate, left to react at room temperature for one hour, and washed with PBS containing 0.1% Tween-20 five times. Lastly, 100 μl of TMB substrate (SIGMA) is added to each well of the plate to induce color reaction, and the reaction is stopped by adding 50 μl of 5N H₂SO₄ solution. The OD₄₅₀ value is read on a plate reader (Molecular Devices).
The method described in Example 1, Section 3 above is used, except that, in the present example, each fused protein synergibodies are diluted from 100 nM to one-fourth each time with PBS containing 1% BSA and 1 nM hAng-2 and adjusted to 6.1 pM for Ang-2:Tie-2 neutralization ELISA.

T1 sequence (P35968 20-764): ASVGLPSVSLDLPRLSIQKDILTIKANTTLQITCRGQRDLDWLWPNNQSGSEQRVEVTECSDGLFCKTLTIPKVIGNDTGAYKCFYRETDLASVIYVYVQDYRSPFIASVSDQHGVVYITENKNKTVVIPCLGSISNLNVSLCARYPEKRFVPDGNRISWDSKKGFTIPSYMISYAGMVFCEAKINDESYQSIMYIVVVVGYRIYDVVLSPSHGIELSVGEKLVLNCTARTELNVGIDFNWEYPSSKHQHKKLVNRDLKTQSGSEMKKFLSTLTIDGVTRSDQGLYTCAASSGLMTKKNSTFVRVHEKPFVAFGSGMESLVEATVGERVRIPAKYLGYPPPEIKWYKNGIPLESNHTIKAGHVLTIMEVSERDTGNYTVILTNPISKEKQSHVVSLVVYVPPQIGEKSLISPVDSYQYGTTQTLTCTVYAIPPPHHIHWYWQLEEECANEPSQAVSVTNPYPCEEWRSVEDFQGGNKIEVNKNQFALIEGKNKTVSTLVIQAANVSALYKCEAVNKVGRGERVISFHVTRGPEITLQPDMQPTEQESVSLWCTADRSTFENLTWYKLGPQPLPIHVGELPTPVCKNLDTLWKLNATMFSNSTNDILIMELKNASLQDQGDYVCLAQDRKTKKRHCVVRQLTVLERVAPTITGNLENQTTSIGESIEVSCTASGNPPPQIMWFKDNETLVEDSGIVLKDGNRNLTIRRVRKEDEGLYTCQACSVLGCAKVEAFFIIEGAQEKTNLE

B1: Syn-Ang-VEGFR-17 (other)
heavy (part 1 of 2): QVQLQQSGAELARPGASVKLSCKASGYTFTDYYINWAKQRTGQGLEWIGEIYPGSGDTYYNEKFKGKATLTADKSSSTAYMQLSSLTSEDSAVYFCARYGYKGVYFDYWGQSTTLTVSS
heavy (part 2 of 2): EAGKETCGYEWQYCPRP
light: ENVLTQSPAIMAASLGQKVTMTCSASSSVSSSYLHWYQQKSGASPKPLIHRTSNLASGVPARFSGSGSGTSYSLTISSVEAEDDATYYCQQWSGYPFTFGAGTKLELK
notes: Chimeric (human IgG1) SAITAng-2-4 with the peptide at the C-terminus of the heavy chain; also called SAITAng-2-4 x DTN8VEGFR-2-2; not shown: human IgG1 heavy chain constant region with Fc region, from the vector; human light chain constant region, printed as 'constant region of human IgG1'
[1]
  IC50: 1.05 nM
[2]
  IC50: 0.998 nM

B2: Syn-Ang-VEGFR-6 (other)
heavy (part 1 of 2): QVQLQQSGPELVKPGASVKMSCKASGYTFTDYVISWVKQRTGQGLEWIGEIYPGSGSTYYNEKFKGKASLTADKSSNTAYMQLSSLTSADSAVYFCVRSRGDYYAMDYWGQGTSVTVSS
heavy (part 2 of 2): TGSDDLCYTFPCMHY
light: DIQMTQSPSSLSASLGGKVTITCKASQDINNYITWYQHKPGKGPRLLIHYTSTLQPGIPSRFSGSGSGRDYSFSISNLEPEDIATYYCLQYDNLLTFGGGTKLEIK
notes: Chimeric (human IgG1) SAITAng-2-2 with the peptide at the C-terminus of the heavy chain; also called SAITAng-2-2 x DTN6VEGFR-2-1; not shown: human IgG1 heavy chain constant region with Fc region, from the vector; human light chain constant region, printed as 'constant region of human IgG1'
[1]
  IC50: 1.56 nM
[2]
  IC50: 1.91 nM

B3: Syn-Ang-VEGFR-9 (other)
heavy (part 1 of 2): QVQLQQSGPELVKPGASVKMSCKASGYTFTDYVISWVKQRTGQGLEWIGEIYPGSGSTYYNEKFKGKASLTADKSSNTAYMQLSSLTSADSAVYFCVRSRGDYYAMDYWGQGTSVTVSS
heavy (part 2 of 2): TGSGRMCDGSGPPTNCWFT
light: DIQMTQSPSSLSASLGGKVTITCKASQDINNYITWYQHKPGKGPRLLIHYTSTLQPGIPSRFSGSGSGRDYSFSISNLEPEDIATYYCLQYDNLLTFGGGTKLEIK
notes: Chimeric (human IgG1) SAITAng-2-2 with the peptide at the C-terminus of the heavy chain; also called SAITAng-2-2 x DTN10VEGFR-2-4; not shown: human IgG1 heavy chain constant region with Fc region, from the vector; human light chain constant region, printed as 'constant region of human IgG1'
[1]
  IC50: 2.04 nM
[2]
  IC50: 1.95 nM

B4: Syn-Ang-VEGFR-7 (other)
heavy (part 1 of 2): QVQLQQSGPELVKPGASVKMSCKASGYTFTDYVISWVKQRTGQGLEWIGEIYPGSGSTYYNEKFKGKASLTADKSSNTAYMQLSSLTSADSAVYFCVRSRGDYYAMDYWGQGTSVTVSS
heavy (part 2 of 2): EAGKETCGYEWQYCPRP
light: DIQMTQSPSSLSASLGGKVTITCKASQDINNYITWYQHKPGKGPRLLIHYTSTLQPGIPSRFSGSGSGRDYSFSISNLEPEDIATYYCLQYDNLLTFGGGTKLEIK
notes: Chimeric (human IgG1) SAITAng-2-2 with the peptide at the C-terminus of the heavy chain; also called SAITAng-2-2 x DTN8VEGFR-2-2; not shown: human IgG1 heavy chain constant region with Fc region, from the vector; human light chain constant region, printed as 'constant region of human IgG1'
[1]
  IC50: 1.76 nM
[2]
  IC50: 2.01 nM

B5: Syn-Ang-VEGFR-8 (other)
heavy (part 1 of 2): QVQLQQSGPELVKPGASVKMSCKASGYTFTDYVISWVKQRTGQGLEWIGEIYPGSGSTYYNEKFKGKASLTADKSSNTAYMQLSSLTSADSAVYFCVRSRGDYYAMDYWGQGTSVTVSS
heavy (part 2 of 2): EAGAYWCKAWGLSPCLVT
light: DIQMTQSPSSLSASLGGKVTITCKASQDINNYITWYQHKPGKGPRLLIHYTSTLQPGIPSRFSGSGSGRDYSFSISNLEPEDIATYYCLQYDNLLTFGGGTKLEIK
notes: Chimeric (human IgG1) SAITAng-2-2 with the peptide at the C-terminus of the heavy chain; also called SAITAng-2-2 x DTN9VEGFR-2-3; not shown: human IgG1 heavy chain constant region with Fc region, from the vector; human light chain constant region, printed as 'constant region of human IgG1'
[1]
  IC50: 1.48 nM
[2]
  IC50: 2.22 nM

B6: Syn-Ang-VEGFR-10 (other)
heavy (part 1 of 2): QVQLQQSGPELVKPGASVKMSCKASGYTFTDYVISWVKQRTGQGLEWIGEIYPGSGSTYYNEKFKGKASLTADKSSNTAYMQLSSLTSADSAVYFCVRSRGDYYAMDYWGQGTSVTVSS
heavy (part 2 of 2): PGSQGYCHLNMRYQWICDSE
light: DIQMTQSPSSLSASLGGKVTITCKASQDINNYITWYQHKPGKGPRLLIHYTSTLQPGIPSRFSGSGSGRDYSFSISNLEPEDIATYYCLQYDNLLTFGGGTKLEIK
notes: Chimeric (human IgG1) SAITAng-2-2 with the peptide at the C-terminus of the heavy chain; also called SAITAng-2-2 x DTN11VEGFR-2-5; not shown: human IgG1 heavy chain constant region with Fc region, from the vector; human light chain constant region, printed as 'constant region of human IgG1'
[1]
  IC50: 2.16 nM
[2]
  IC50: 2 nM
